Experimental data as given in patent publication US20200297842A1 (published 2020).
Positions count from the first letter of the chain named.

B1: SIRP8 (antibody, V domains shown)
VH: EVQLQESGGGLVKPGGSLKLSCAASGFTLSTYTMSWVRQTPEKRLEWVAIITSGDTYTYYPDSVKGRFTISRDNAKNTLYLQMSSLKSEDTGMYYCTRDRPLFHWGQGTTLTVST
VL: QIVLTQSPAIMSASPGEKVTMTCSASSSVSYMYWYQQKPGSSPRLLIYDTSNLASGVPVRFSGSGSGTSYSLTISRMEAEDAATYYCQQWSSFPWTFGGGTKLEIK
B2: SIRP22 (antibody, human IgG4 S228P, kappa, V domains shown)
VH: QVQLVQSGAEVKKPGASVKVSCKASGYSFTDYFLNWVRQAPGQGLEWMGRINPYNGDSFINQNFRDRVTMTVDTSTSTVYMELSSLRSEDTAVYYCARGGYDGYFIAYFDYWGAGTTVTVSS
VL: DIQMTQSPSSLSASVGDRVTITCKASQDINSHLSWYQQKPGKAPKLLIYRANRLATGVPSRFSGSGSGTDFTFTISSLQPEDIATYYCQQYDEFPYTFGGGTKLEIKR
B3: SIRP13 (antibody, human IgG4 S228P, kappa, V domains shown)
VH: B2 VH with V72R
VL: B2 VL
B4: SIRP14 (antibody, human IgG4 S228P, kappa, V domains shown)
VH: B2 VH with A16S, M70I, V72A, T74K, V79A
VL: B2 VL with Q89L
B5: SIRP19 (antibody, human IgG4 S228P, kappa, V domains shown)
VH: EVQLVQSGAEVKKPGESLKISCKGSGYSFTDYFLNWVRQMPGKGLEWMGRINPYNGDSFINQNFRDQVTISADKSISTAYLQWSSLKASDTAMYYCARGGYDGYFIAYFDYWGAGTTVTVSS
VL: B2 VL
B6: SIRP23 (antibody, human IgG4 S228P, kappa, V domains shown)
VH: EVQLQQSGPDLVKPGASVKISCKASGYSFTDYFLNWVKQSHGKSLEWIGRINPYNGDSFINQNFRDKATLTVDKSSTTAHMDLLSLTSEDSAIYYCGRGGYDGYFIAYFDYWGQGSLVTVSA
VL: DIKMTQSPSSMYASLGQRVTITCKASQDINSHLSWFQEKPGKSPKTLIYRANRLADGVPSRFSGSGSGQDYFLTISSLEYEDVGIYYCLQYDEFPYTFGGGTKLEIKR
B7: SIRP10 (antibody, V domains shown)
VH: EVQLQESGAELVRPGTSVKMSCKAAGYTFSNYLIGWIKQRPGHGLEWIGDIYPGDNNTNYNEKFRVKATLTADTSSNTAYMHLTSLTSEDSAIYYCAGGTDYDGFANWGQGTLVTVSA
VL: ENVLTQSPAIMSASLGEKVTMSCRASSSVNYMYWYQQKSDASPKLWIYYTSKLAPGVPARFSGSGSGNSYSLTISSMEGEDAATYYCQQFTSSPFTFGSGTKLEIK
B8: SIRP6 (antibody, V domains shown)
VH: QIQLVQSGPELKKPGETVKISCKASGYTFTDYGVNWVKQGPGKDLQWMGWVNTNTRESTYVEDFKGRFAFSLETSASTAYLQINNLKNEDSSTYFCARGAYDAYYYYYGMDYWGQGTSVTVSS
VL: DIQMTQSPASLSASVGETVTITCRASENIYSYLTWYKQKQGKSPQLLVYNAKTLAEGVPSRFSGSGSGTQFSLKINSLQPEDFGSYYCQHHYGSPRTFGGGTKLEIK
B9: SIRP11 (antibody, human IgG4 S228P, kappa, V domains shown)
VH: B2 VH with V72R
VL: B2 VL with Q89L
notes: shares the heavy-chain CDRs of SIRP4
B10: SIRP17 (antibody, human IgG4 S228P, kappa, V domains shown)
VH: B5 VH
VL: B2 VL with Q89L
B11: SIRP16 (antibody, human IgG4 S228P, kappa, V domains shown)
VH: B2 VH with A16S, M70I, V72A, T74K, V79A
VL: B2 VL
B12: SIRP20 (antibody, human IgG4 S228P, kappa, V domains shown)
VH: B2 VH
VL: B2 VL with Q89L
B13: SIRP18 (antibody, human IgG4 S228P, kappa, V domains shown)
VH: B5 VH
VL: B2 VL with Q79E, P80Y, Q89L
B14: SIRP15 (antibody, human IgG4 S228P, kappa, V domains shown)
VH: B2 VH with A16S, M70I, V72A, T74K, V79A
VL: B2 VL with Q79E, P80Y, Q89L
B15: SIRP12 (antibody, human IgG4 S228P, kappa, V domains shown)
VH: B2 VH with V72R
VL: B2 VL with Q79E, P80Y, Q89L
B16: SIRP21 (antibody, human IgG4 S228P, kappa, V domains shown)
VH: B2 VH
VL: B2 VL with Q79E, P80Y, Q89L

What follows are binders tested against T1, Fc tagged human SIRPγ (ACRO # SIG-H5253) (human, UniProt Q9P1W8 29-360) (assay: ELISA, plate-coated Fc tagged human SIRPγ).
T1 construct: Bought protein; it includes the transmembrane and cytoplasmic part, which a soluble Fc fusion would not carry; also called Fc tagged human SIRP gamma; recombinant human SIRP gamma; not shown: Fc tag
T1 sequence (Q9P1W8 29-360 limits assumed): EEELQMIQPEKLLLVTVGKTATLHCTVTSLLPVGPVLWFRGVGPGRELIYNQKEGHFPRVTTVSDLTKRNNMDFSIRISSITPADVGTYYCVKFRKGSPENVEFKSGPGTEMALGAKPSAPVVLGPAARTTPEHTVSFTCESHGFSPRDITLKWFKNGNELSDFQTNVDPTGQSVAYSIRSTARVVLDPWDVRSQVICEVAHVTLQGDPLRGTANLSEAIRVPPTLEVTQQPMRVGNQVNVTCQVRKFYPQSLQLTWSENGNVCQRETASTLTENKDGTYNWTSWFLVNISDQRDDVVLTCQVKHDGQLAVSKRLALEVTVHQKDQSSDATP
Method: (§1) Fc tagged human SIRPγ (ACRO # SIG-H5253) is adsorbed to high-binding microtiter plates at a concentration of 1 μg/ml in phosphate buffered saline (PBS) overnight at 4° C. The coating solution is removed, the wells are washed and then blocked with 75% casein in PBS containing 0.5% Tween 20 (PBST) for 60 minutes at room temperature while shaking. Blocking solution is removed, the wells are washed and incubated for 60 minutes at room temperature while shaking with anti-SIRP mAbs diluted in PBST at a starting concentration of 30 μg/ml and reducing the concentration in 3-fold serial dilutions. Wells are washed three times with PBST and incubated for 60 minutes at room temperature while shaking with an HRP labeled donkey anti-mouse or anti-human secondary antibody (Jackson ImmonResearch Laboratories) diluted 1:10,000 in PBST. The wells are washed and then incubated with peroxidase substrate and the absorbance at 450 nm determined. The apparent affinities were calculated using a non-linear fit model (GraphPad Prism).
B1: no binding (tested: 30 µg/ml).
B2: no binding (tested: 30 µg/ml).
B3: no binding (tested: 30 µg/ml).
B4: no binding (tested: 30 µg/ml).
B5: no binding (tested: 30 µg/ml).

The binders below were run against T2, Fc tagged human SIRPα (ACRO # SIG-H5251, genotype variant 1) (human, UniProt P78324 31-370, limits assumed) (assay: ELISA, plate-coated Fc tagged human SIRPα; apparent Kd).
T2 construct: Bought protein; also called Fc tagged human SIRP alpha; recombinant human SIRPα; not shown: Fc tag
T2 sequence (P78324 31-370 limits assumed, change not shown, form in doubt): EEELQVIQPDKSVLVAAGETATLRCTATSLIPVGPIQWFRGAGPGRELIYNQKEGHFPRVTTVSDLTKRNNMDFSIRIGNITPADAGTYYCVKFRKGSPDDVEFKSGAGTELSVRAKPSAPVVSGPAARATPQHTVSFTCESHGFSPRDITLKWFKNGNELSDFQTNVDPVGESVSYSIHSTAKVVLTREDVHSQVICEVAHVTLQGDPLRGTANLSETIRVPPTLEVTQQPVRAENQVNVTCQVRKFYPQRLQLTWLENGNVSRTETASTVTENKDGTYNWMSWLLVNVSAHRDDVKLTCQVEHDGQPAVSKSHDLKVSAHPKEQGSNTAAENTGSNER
Method: The binding of anti-SIRP monoclonal antibodies (mAbs) of the present disclosure to SIRP alpha (SIRPα) was determined by solid phase ELISA using an Fc tagged human SIRP alpha. Binding by soluble anti-SIRP antibodies was measured in vitro.
Fc tagged human SIRPα (ACRO # SIG-H5251, genotype variant 1) is adsorbed to high-binding microtiter plates at a concentration of 1 μg/ml diluted in phosphate buffered saline (PBS) overnight at 4° C. The coating solution is removed, the wells are washed and then blocked with 75% casein in PBS containing 0.5% Tween 20 (PBST) for 60 minutes at room temperature while shaking. Blocking solution is removed, the wells are washed and incubated for 60 minutes at room temperature while shaking with either murine or human anti-SIRP mAbs diluted in PBST at a starting concentration of 30 μg/ml and reducing the concentration in 3-fold serial dilutions. Wells are washed three times with PBST and incubated for 60 minutes at room temperature while shaking with an HRP-labeled donkey anti-mouse or anti-human secondary antibody (Jackson ImmunoResearch Laboratories) diluted 1:10,000 in PBST. The wells are washed and then incubated with peroxidase substrate and the absorbance at 450 nm measured. The apparent affinities were calculated using a non-linear fit model (GraphPad Prism).
With B6 the Kd was 0.164 nM.
B7 was tested, and the Kd was > 10 nM.
For B8, the Kd was 0.131 nM.
In the case of B1, the Kd is reported as 0.057 nM.
In the case of B9, the Kd is reported as 0.194 nM.
Work on B10 yielded a Kd of 0.326 nM.
For B11, the Kd was > 40 nM.
Work on B12 yielded a Kd of 0.157 nM.
B2 was tested, and the Kd was > 11 nM.
B13 was tested, and the Kd was 0.364 nM.
Binder B14 has a Kd of 0.608 nM.
B3 showed a Kd of 1.56 nM.
B4 was tested, and the Kd was 0.565 nM.
With B5 the Kd was > 19 nM.
B15 was tested, and the Kd was 0.165 nM.
Binder B16 has a Kd of 0.274 nM.

These binders were tested against T1, Fc tagged human SIRPγ (ACRO # SIG-H5253) (assay: blocking ELISA: mAb with human SIRPγ (ACRO # SIG-H5253) on plate-coated HIS tagged human CD47).
Method: HIS tagged human CD47 (ACRO # CD7-H5227) is adsorbed to high-binding microtiter plates at a concentration of 2 μg/ml diluted in PBS overnight at 4° C. The coating solution is removed, the wells are washed and then blocked with 75% casein in PBS containing 0.5% Tween 20 (PBST) for 60 minutes at room temperature while shaking. Blocking solution is removed, the wells are washed and incubated for 60 minutes at room temperature while shaking with anti-SIRP mAbs diluted in PBST at a starting concentration of 30 μg/ml and reducing the concentration in 3 fold serial dilutions and 0.5 μg/ml of human SIRPγ (ACRO # SIG-H5253). Wells are washed three times with PBST and incubated for 60 minutes at room temperature while shaking with an HRP labeled donkey anti-mouse or anti-human secondary antibody (Jackson ImmunoResearch Laboratories) diluted 1:20,000 in PBST. The wells are washed and then incubated with peroxidase substrate and the absorbance at 450 nm determined. The IC₅₀ was calculated using a non-linear fit model (GraphPad Prism).
Binder B8 has an IC50 of 0.86 nM.

The binders below were run against T1, Fc tagged human SIRPγ (ACRO # SIG-H5253) (assay: ELISA, plate-coated Fc tagged human SIRPγ; apparent Kd).
Method: The binding of anti-SIRP antibodies of the present disclosure to SIRP gamma (SIRPγ) was determined by ELISA using an Fc tagged human SIRPγ. Binding by soluble anti-SIRP antibodies was measured in vitro.
as §1
Work on B6 yielded a Kd of 0.225 nM.
B7 was tested, and the Kd was > 10 nM.
B8 gave a Kd of 0.183 nM.
B9 showed a Kd of 7.22 nM.
With B10 the Kd was > 15 nM.
In the case of B12, the Kd is reported as > 29 nM.
In the case of B13, the Kd is reported as > 34 nM.
B14 was tested, and the Kd was > 14 nM.
In the case of B15, the Kd is reported as > 12 nM.
In the case of B16, the Kd is reported as > 21 nM.
